From US20120178908A1 (Novo Nordisk, published 2012)

T1: TLT-1 18-188 relipidated in 20:80 PS:PC vesicles (human, UniProt Q86YW5 18-188)
T1 sequence: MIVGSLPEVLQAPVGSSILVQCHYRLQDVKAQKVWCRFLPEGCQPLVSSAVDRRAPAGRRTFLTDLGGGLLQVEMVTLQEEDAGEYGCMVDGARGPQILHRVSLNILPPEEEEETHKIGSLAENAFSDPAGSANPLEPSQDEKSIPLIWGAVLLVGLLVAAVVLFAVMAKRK

T2: TLT-1 receptor on the surface of activated human platelets (human, UniProt Q86YW5 16-311)
T2 sequence: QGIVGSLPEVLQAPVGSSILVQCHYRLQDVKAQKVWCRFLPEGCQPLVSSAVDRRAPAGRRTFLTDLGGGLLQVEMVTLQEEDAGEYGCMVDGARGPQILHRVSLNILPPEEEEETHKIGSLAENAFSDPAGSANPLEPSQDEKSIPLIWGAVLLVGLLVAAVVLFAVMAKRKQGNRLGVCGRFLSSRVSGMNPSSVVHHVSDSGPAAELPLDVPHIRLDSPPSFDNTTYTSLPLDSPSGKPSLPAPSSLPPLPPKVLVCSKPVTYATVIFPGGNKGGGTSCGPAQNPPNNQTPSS

T3: TLT-1 receptor on the surface of activated human platelets (human) (UniProt Q86YW5)
T3 sequence: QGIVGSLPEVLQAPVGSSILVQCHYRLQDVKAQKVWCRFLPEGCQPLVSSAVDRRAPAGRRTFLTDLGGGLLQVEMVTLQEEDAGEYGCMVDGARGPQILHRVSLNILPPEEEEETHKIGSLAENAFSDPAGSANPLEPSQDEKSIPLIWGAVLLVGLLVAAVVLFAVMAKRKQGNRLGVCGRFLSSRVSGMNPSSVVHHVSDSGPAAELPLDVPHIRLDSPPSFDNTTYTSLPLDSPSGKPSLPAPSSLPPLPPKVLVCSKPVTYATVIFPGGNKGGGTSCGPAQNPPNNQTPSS

T4: TLT-1 18-188 relipidated in 20:80 PS:PC vesicles (human) (UniProt Q86YW5)
T4 sequence: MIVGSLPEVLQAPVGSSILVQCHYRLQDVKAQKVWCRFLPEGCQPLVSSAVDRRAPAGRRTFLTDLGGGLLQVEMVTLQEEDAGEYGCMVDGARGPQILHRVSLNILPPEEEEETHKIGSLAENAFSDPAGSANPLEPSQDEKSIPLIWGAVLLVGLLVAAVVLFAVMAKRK


Key:
[1] = biological target: T1, TLT-1 18-188 relipidated in 20:80 PS:PC …; assay: cell-based or functional assay
[2] = biological target: T2, TLT-1 receptor on the surface of …; assay: cell-based or functional assay
[3] = biological target: T3, TLT-1 receptor on the surface of activated human platelets (human)
[4] = biological target: T4, TLT-1 18-188 relipidated in 20:80 PS:PC vesicles (human)

Binder	FVII-mediated FXa generation % Activity activated plts (n 4) [3] [%]	FVII-mediated FXa generation % Activity lipidated TLT-1 [4] [%]	FVIIa-mediated FXa generation % Activity lipidated TLT-1 [4] [%]	FVIIa-mediated FXa generation % Activity activated plts (n 1) [3] [%]	further results
hTF.1-219 (soluble tissue factor) (receptor) SGTTNTVAAYNLTWKSTNFKTILEWEPKPVNQVYTVQISTKSGDWKSKCFYTTDTECDLTDEIVKDVKQTYLARVFSYPAGNVESTGSAGEPLYENSPEFTPYLETNLGQPTIQSFEQVGTKVNVTVEDERTLVRRNNTFLSLRDVFGKDLIYTLYYWKSSSSGKKTAKTNTNEFLIDVDKGENYCFSVQAVIPSRTVNRKSTDSPVECMGQEKGEFRE					FVII-mediated FXa generation % Activity lipidated TLT-1 [1]: 1%; FVIIa-mediated FXa generation % Activity lipidated TLT-1 [1]: 13%; FVII-mediated FXa generation % Activity activated plts (n 1) [2]: 2%; FVIIa-mediated FXa generation % Activity activated plts (n 1) [2]: 4%
Fab 0012-VH-CH1-L0-TF;LC-HPC4 (protein) VH-CH1-TF, no linker: EVKLLESGGGLVQPGGSLKLSCAASGFDFSRYWMTWVRQAPGKGLEWIGEINPDSSTINYTPSLKDKFIISRDNAKNTLYLQMSEVRSEDTALYYCASGVFTSWGQGTLVTVSAASTKGPSVFPLAPCSRSTSESTAALGCLVKDYFPEPVTVSWNSGALTSGVHTFPAVLQSSGLYSLSSVVTVPSSSLGTKTYTCNVDHKPSNTKVDKRVESKSGTTNTVAAYNLTWKSTNFKTILEWEPKPVNQVYTVQISTKSGDWKSKCFYTTDTECDLTDEIVKDVKQTYLARVFSYPAGNVESTGSAGEPLYENSPEFTPYLETNLGQPTIQSFEQVGTKVNVTVEDERTLVRRNNTFLSLRDVFGKDLIYTLYYWKSSSSGKKTAKTNTNEFLIDVDKGENYCFSVQAVIPSRTVNRKSTDSPVECMGQEKGEFRE light chain-HPC4: DVVMTQTPLSLPVSLGDQASISCRSSQSLVHRNGNTYFHWCLQKPGQSPKLLIYKVSNRFSGVPDRFSGSGSGTDFTLKISRVEAEDLGVYFCSQSTHVPYTFGGGTKLEIKRTVAAPSVFIFPPSDEQLKSGTASVVCLLNNFYPREAKVQWKVDNALQSGNSQESVTEQDSKDSTYSLSSTLTLSKADYEKHKVYACEVTHQGLSSPVTKSFNRGECEDQVDPRLIDGK	71	98	106		FVIIa-mediated FXa generation % Activity activated plts (n 4) [3]: 80%
Fab 0012-VH-CH1-L10-TF;LC-HPC4 (protein) VH-CH1-linker-TF: EVKLLESGGGLVQPGGSLKLSCAASGFDFSRYWMTWVRQAPGKGLEWIGEINPDSSTINYTPSLKDKFIISRDNAKNTLYLQMSEVRSEDTALYYCASGVFTSWGQGTLVTVSAASTKGPSVFPLAPCSRSTSESTAALGCLVKDYFPEPVTVSWNSGALTSGVHTFPAVLQSSGLYSLSSVVTVPSSSLGTKTYTCNVDHKPSNTKVDKRVESKYGPPSPSSPAPEFLGGSGTTNTVAAYNLTWKSTNFKTILEWEPKPVNQVYTVQISTKSGDWKSKCFYTTDTECDLTDEIVKDVKQTYLARVFSYPAGNVESTGSAGEPLYENSPEFTPYLETNLGQPTIQSFEQVGTKVNVTVEDERTLVRRNNTFLSLRDVFGKDLIYTLYYWKSSSSGKKTAKTNTNEFLIDVDKGENYCFSVQAVIPSRTVNRKSTDSPVECMGQEKGEFRE light chain-HPC4: DVVMTQTPLSLPVSLGDQASISCRSSQSLVHRNGNTYFHWCLQKPGQSPKLLIYKVSNRFSGVPDRFSGSGSGTDFTLKISRVEAEDLGVYFCSQSTHVPYTFGGGTKLEIKRTVAAPSVFIFPPSDEQLKSGTASVVCLLNNFYPREAKVQWKVDNALQSGNSQESVTEQDSKDSTYSLSSTLTLSKADYEKHKVYACEVTHQGLSSPVTKSFNRGECEDQVDPRLIDGK		87	93		FVII-mediated FXa generation % Activity activated plts (n 2) [3]: 78%; FVIIa-mediated FXa generation % Activity activated plts (n 2) [3]: 81%
Fab 0012-TF-L4b-VH-CH1;LC-HPC4 (protein) TF-linker-VH-CH1: SGTTNTVAAYNLTWKSTNFKTILEWEPKPVNQVYTVQISTKSGDWKSKCFYTTDTECDLTDEIVKDVKQTYLARVFSYPAGNVESTGSAGEPLYENSPEFTPYLETNLGQPTIQSFEQVGTKVNVTVEDERTLVRRNNTFLSLRDVFGKDLIYTLYYWKSSSSGKKTAKTNTNEFLIDVDKGENYCFSVQAVIPSRTVNRKSTDSPVECMGQEKGEFREGGGGSGGGGSGGGGSGSEVKLLESGGGLVQPGGSLKLSCAASGFDFSRYWMTWVRQAPGKGLEWIGEINPDSSTINYTPSLKDKFIISRDNAKNTLYLQMSEVRSEDTALYYCASGVFTSWGQGTLVTVSAASTKGPSVFPLAPCSRSTSESTAALGCLVKDYFPEPVTVSWNSGALTSGVHTFPAVLQSSGLYSLSSVVTVPSSSLGTKTYTCNVDHKPSNTKVDKRVESK light chain-HPC4: DVVMTQTPLSLPVSLGDQASISCRSSQSLVHRNGNTYFHWCLQKPGQSPKLLIYKVSNRFSGVPDRFSGSGSGTDFTLKISRVEAEDLGVYFCSQSTHVPYTFGGGTKLEIKRTVAAPSVFIFPPSDEQLKSGTASVVCLLNNFYPREAKVQWKVDNALQSGNSQESVTEQDSKDSTYSLSSTLTLSKADYEKHKVYACEVTHQGLSSPVTKSFNRGECEDQVDPRLIDGK		0	0		FVII-mediated FXa generation % Activity activated plts (n 1) [3]: 5%; FVIIa-mediated FXa generation % Activity activated plts (n 2) [3]: 5%
Fab 0012-LC-L1-TF;VH-CH1-HPC4 (protein) light chain-linker-TF: DVVMTQTPLSLPVSLGDQASISCRSSQSLVHRNGNTYFHWCLQKPGQSPKLLIYKVSNRFSGVPDRFSGSGSGTDFTLKISRVEAEDLGVYFCSQSTHVPYTFGGGTKLEIKRTVAAPSVFIFPPSDEQLKSGTASVVCLLNNFYPREAKVQWKVDNALQSGNSQESVTEQDSKDSTYSLSSTLTLSKADYEKHKVYACEVTHQGLSSPVTKSFNRGECGSSGTTNTVAAYNLTWKSTNFKTILEWEPKPVNQVYTVQISTKSGDWKSKCFYTTDTECDLTDEIVKDVKQTYLARVFSYPAGNVESTGSAGEPLYENSPEFTPYLETNLGQPTIQSFEQVGTKVNVTVEDERTLVRRNNTFLSLRDVFGKDLIYTLYYWKSSSSGKKTAKTNTNEFLIDVDKGENYCFSVQAVIPSRTVNRKSTDSPVECMGQEKGEFRE VH-CH1-HPC4: EVKLLESGGGLVQPGGSLKLSCAASGFDFSRYWMTWVRQAPGKGLEWIGEINPDSSTINYTPSLKDKFIISRDNAKNTLYLQMSEVRSEDTALYYCASGVFTSWGQGTLVTVSAASTKGPSVFPLAPCSRSTSESTAALGCLVKDYFPEPVTVSWNSGALTSGVHTFPAVLQSSGLYSLSSVVTVPSSSLGTKTYTCNVDHKPSNTKVDKRVESKEDQVDPRLIDGK	111	97	101	125	
Fab 0012-LC-L3-TF;VH-CH1-HPC4 (protein) light chain-linker-TF: DVVMTQTPLSLPVSLGDQASISCRSSQSLVHRNGNTYFHWCLQKPGQSPKLLIYKVSNRFSGVPDRFSGSGSGTDFTLKISRVEAEDLGVYFCSQSTHVPYTFGGGTKLEIKRTVAAPSVFIFPPSDEQLKSGTASVVCLLNNFYPREAKVQWKVDNALQSGNSQESVTEQDSKDSTYSLSSTLTLSKADYEKHKVYACEVTHQGLSSPVTKSFNRGECGSGGGGSGGGGSSGTTNTVAAYNLTWKSTNFKTILEWEPKPVNQVYTVQISTKSGDWKSKCFYTTDTECDLTDEIVKDVKQTYLARVFSYPAGNVESTGSAGEPLYENSPEFTPYLETNLGQPTIQSFEQVGTKVNVTVEDERTLVRRNNTFLSLRDVFGKDLIYTLYYWKSSSSGKKTAKTNTNEFLIDVDKGENYCFSVQAVIPSRTVNRKSTDSPVECMGQEKGEFRE VH-CH1-HPC4: EVKLLESGGGLVQPGGSLKLSCAASGFDFSRYWMTWVRQAPGKGLEWIGEINPDSSTINYTPSLKDKFIISRDNAKNTLYLQMSEVRSEDTALYYCASGVFTSWGQGTLVTVSAASTKGPSVFPLAPCSRSTSESTAALGCLVKDYFPEPVTVSWNSGALTSGVHTFPAVLQSSGLYSLSSVVTVPSSSLGTKTYTCNVDHKPSNTKVDKRVESKEDQVDPRLIDGK		98	105	97	FVII-mediated FXa generation % Activity activated plts (n 1) [3]: 98%
Fab 0012-LC-L2-TF;VH-CH1-HPC4 (protein) light chain-linker-TF: DVVMTQTPLSLPVSLGDQASISCRSSQSLVHRNGNTYFHWCLQKPGQSPKLLIYKVSNRFSGVPDRFSGSGSGTDFTLKISRVEAEDLGVYFCSQSTHVPYTFGGGTKLEIKRTVAAPSVFIFPPSDEQLKSGTASVVCLLNNFYPREAKVQWKVDNALQSGNSQESVTEQDSKDSTYSLSSTLTLSKADYEKHKVYACEVTHQGLSSPVTKSFNRGECGSGGGGSSGTTNTVAAYNLTWKSTNFKTILEWEPKPVNQVYTVQISTKSGDWKSKCFYTTDTECDLTDEIVKDVKQTYLARVFSYPAGNVESTGSAGEPLYENSPEFTPYLETNLGQPTIQSFEQVGTKVNVTVEDERTLVRRNNTFLSLRDVFGKDLIYTLYYWKSSSSGKKTAKTNTNEFLIDVDKGENYCFSVQAVIPSRTVNRKSTDSPVECMGQEKGEFRE VH-CH1-HPC4: EVKLLESGGGLVQPGGSLKLSCAASGFDFSRYWMTWVRQAPGKGLEWIGEINPDSSTINYTPSLKDKFIISRDNAKNTLYLQMSEVRSEDTALYYCASGVFTSWGQGTLVTVSAASTKGPSVFPLAPCSRSTSESTAALGCLVKDYFPEPVTVSWNSGALTSGVHTFPAVLQSSGLYSLSSVVTVPSSSLGTKTYTCNVDHKPSNTKVDKRVESKEDQVDPRLIDGK	96	96	106	112	
